In test [1] the target is T1, LEC-γ1, chimeric form of P-selectin conjugated to the Fc portion of a human IgGγ1 (human, UniProt P16109 42-771).
T1 construct: extracellular domain; Built by known methods (Aruffo et al. 1991), made in CHO DUKX cells; also called P-selectin/IgG chimera; P-selectin/Fc chimera; not shown: Fc portion of a human IgGγ1
T1 sequence (looked up): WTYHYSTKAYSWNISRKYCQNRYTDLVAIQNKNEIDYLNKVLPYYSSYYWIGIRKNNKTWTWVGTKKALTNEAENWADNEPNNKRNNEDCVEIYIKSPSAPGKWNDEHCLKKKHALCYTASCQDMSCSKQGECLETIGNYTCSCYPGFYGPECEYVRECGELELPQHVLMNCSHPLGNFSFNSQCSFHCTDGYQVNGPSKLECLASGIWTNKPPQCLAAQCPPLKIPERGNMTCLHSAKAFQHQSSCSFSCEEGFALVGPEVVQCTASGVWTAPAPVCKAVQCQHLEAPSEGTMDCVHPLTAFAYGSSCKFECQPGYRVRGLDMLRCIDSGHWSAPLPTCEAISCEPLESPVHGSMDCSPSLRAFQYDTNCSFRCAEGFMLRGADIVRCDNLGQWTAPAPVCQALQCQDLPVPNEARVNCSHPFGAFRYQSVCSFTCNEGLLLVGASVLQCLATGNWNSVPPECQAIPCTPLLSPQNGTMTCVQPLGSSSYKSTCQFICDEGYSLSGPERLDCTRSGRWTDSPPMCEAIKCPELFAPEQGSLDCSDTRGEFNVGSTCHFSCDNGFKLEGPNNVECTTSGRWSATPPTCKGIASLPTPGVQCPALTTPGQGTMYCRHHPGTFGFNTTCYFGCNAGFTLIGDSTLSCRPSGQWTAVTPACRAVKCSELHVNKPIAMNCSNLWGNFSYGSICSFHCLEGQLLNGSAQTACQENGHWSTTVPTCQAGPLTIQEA
In words: affinity precipitation from 35S-labelled COS membrane lysates. The procedure: (§1) The labeled cells were washed, incubated with EGTA to loosen them from the dish surface, scraped from the dish, pelleted, and suspended in cold 10 mM PIPES buffer, pH 7.5, containing 100 mM KCl, 3 mM NaCl, 3.5 mM MgCl_2, and protease inhibitors (see above). Membrane extraction then was carried out by sonication, low speed centrifugation, high speed centrifugation, and solubilization in membrane lysis buffer as above, for labeled myeloid cells.
(§2) Affinity Precipitations. Membrane extracts were diluted 1:4 or 1:5 with cell lysis buffer or with TBSC buffer (20 mM TrisHCl, 150 mM NaCl, 2 mM CaCl_2, pH 7.5) supplemented with 5 mg/ml bovine serum albumin (approximately 99%, Sigma). Extracts thus diluted to 0.2-0.25% Triton X-100 were incubated with human IgG_1-Protein A Sepharose with end-over-end mixing at 4° C. overnight. […] The resins were washed 5 or more times in buffer containing 0.1-0.5% Triton X-100 until the radioactivity of the wash supernatants was reduced to background level. […]
(§3) COS cells were cotransfected with cDNAs encoding either PSGL-1 or CD43 and either Fuc-TIII or Fuc-TVII. […] The precipitated products were evaluated by SDS-PAGE/autoradiography following their release by EDTA/EGTA (for selectin mediated binding) or by boiling in SDS (for immunoprecipitations).

Test [2] addresses T2, chimeric protein comprising the extracellular domain of human E-selectin and the Fc portion of human IgG1 … (human, UniProt P16581 22-556).
T2 construct: extracellular domain; Built analogously to LEC-γ1; also called soluble E-selectin chimera; immobilized E-selectin; not shown: Fc portion of human IgG1
T2 sequence (looked up): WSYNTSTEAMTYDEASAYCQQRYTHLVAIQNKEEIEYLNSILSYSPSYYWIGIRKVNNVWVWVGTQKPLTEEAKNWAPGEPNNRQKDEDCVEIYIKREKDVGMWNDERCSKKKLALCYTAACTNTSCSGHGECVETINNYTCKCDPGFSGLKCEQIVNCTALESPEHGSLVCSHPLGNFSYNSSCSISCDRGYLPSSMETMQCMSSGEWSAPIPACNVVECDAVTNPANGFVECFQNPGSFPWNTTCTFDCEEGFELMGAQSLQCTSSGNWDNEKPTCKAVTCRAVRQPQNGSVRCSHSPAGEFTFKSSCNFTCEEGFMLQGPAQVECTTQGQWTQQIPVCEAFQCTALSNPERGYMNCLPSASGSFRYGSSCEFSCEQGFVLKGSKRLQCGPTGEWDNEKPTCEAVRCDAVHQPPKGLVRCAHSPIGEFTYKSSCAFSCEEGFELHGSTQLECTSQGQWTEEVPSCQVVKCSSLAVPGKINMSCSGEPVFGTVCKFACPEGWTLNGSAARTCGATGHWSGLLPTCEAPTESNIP
In words: affinity precipitation from 35S-labelled COS membrane lysates (FIG. 29A). Here is the method: as §1, §2, §3

The target of test [3] is T3, E-selectin expressed on CHO cells (CHO:E-selectin) (UniProt P16581 22-610, limits assumed).
T3 construct: whole, on cells; also called E-selectin expressing CHO cells; CHO cells which express E-selectin
T3 sequence (looked up): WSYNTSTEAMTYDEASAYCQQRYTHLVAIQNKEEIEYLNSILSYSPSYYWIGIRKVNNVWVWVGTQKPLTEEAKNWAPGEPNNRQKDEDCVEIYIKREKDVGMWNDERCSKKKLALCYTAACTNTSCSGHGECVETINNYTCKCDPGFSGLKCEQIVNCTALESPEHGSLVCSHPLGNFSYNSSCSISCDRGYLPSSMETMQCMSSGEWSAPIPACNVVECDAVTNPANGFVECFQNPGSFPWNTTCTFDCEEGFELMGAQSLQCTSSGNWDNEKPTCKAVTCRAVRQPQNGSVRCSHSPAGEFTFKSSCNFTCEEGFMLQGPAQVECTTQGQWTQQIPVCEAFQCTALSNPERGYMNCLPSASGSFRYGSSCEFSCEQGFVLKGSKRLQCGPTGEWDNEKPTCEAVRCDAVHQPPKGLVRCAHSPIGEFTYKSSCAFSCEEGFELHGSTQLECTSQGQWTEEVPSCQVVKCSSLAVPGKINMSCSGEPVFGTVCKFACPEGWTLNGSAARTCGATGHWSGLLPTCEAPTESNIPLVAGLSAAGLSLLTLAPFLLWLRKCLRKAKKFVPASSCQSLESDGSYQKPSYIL
In words: plate coated with chimera; adhesion of 3H-labelled CHO:E-selectin cells (FIG. 15). The procedure: Quantitative adhesion of CHO:P-selectin, CHO:E-selectin and CHO:L-selectin expressing cells was performed as described in Example 4(c), with the following modifications: COS cell and antibodies were omitted. Instead, 48-well microtiter plates (Costar) were coated for 16 hours at 4° C. with varying quantities of protein A-purified soluble PSGL-1/Fc chimeras. The unbound material was removed and the coated wells were treated with Hank's buffered saline (HBS) with 1 mg/ml BSA and 2 mM CaCl_2 for 1 hour at 4° C. Tritium labeled CHO selectin expressing cells were added and binding quantitated as described in Example 4(c).

Test [4] has as its target T4, P-selectin expressed on the surface of CHO cells (CHO:P-selectin cell line) (UniProt P16109 42-830, limits assumed).
T4 construct: whole, on cells; also called P-selectin expressing CHO cells
T4 sequence (looked up): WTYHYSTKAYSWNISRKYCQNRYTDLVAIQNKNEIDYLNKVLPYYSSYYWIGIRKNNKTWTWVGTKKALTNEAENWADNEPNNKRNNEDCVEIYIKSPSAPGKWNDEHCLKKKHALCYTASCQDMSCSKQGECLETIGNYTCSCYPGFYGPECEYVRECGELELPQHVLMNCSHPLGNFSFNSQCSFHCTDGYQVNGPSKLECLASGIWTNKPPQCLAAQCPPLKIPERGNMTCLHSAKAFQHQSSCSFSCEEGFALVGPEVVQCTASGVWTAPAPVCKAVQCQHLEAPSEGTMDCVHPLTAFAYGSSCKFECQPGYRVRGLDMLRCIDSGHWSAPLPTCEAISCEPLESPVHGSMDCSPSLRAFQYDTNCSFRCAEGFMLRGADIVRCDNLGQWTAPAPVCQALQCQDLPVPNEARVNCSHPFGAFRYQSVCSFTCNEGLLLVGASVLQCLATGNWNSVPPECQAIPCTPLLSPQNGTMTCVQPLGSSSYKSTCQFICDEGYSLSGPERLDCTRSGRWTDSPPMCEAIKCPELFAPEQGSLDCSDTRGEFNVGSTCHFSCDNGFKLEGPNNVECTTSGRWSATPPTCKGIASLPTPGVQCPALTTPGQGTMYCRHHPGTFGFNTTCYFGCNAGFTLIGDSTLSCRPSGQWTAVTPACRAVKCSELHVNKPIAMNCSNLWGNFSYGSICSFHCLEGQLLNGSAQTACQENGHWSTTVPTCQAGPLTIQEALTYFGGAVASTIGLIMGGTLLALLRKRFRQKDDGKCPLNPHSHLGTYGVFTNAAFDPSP
In words: conditioned medium coated on plastic dishes; adhesion of CHO:P-selectin cells. The procedure: COS cells were co-transfected with the pED.sPSL.T7 plasmid of Example 5(C), the pEA.3/4FT cDNA of Example 2, and a plasmid containing the PACE cDNA as set forth in SEQ ID NO:5. A parallel control co-transfection was done using only the pED.sPSL.T7 plasmid and the pEA.3/4FT plasmid. After 45 hours, conditioned medium from these transfected COS cells was coated onto plastic dishes and binding to CHO:P-selectin cells (Example 4) was determined.

B1: recombinant CD43 (pFCD43) from COS cells co-transfected with Fuc-TIII (other, UniProt P16150 20-400, looked up)
chain: STTAVQTPTSGEPLVSTSEPLSSKMYTTSITSDPKADSTGDQTSALPPSTSINEGSPLWTSIGASTGSPLPEPTTYQEVSIKMSSVPQETPHATSHPAVPITANSLGSHTVTGGTITTNSPETSSRTSGAPVTTAASSLETSRGTSGPPLTMATVSLETSKGTSGPPVTMATDSLETSTGTTGPPVTMTTGSLEPSSGASGPQVSSVKLSTMMSPTTSTNASTVPFRNPDENSRGMLPVAVLVALLAVIVLVALLLLWRRRQKRRTGALVLSRGGKRNGVVDAWAGPAQVPEEGAVTVTVGGSGGDKGSGFPDGEGSSRRPTLTTFFGRRKSRQGSLAMEELKSGSGPSLKGEEEPLVASEDGAVDAPAPDEPEGGDGAAP
modifications: co-expressed with Fuc-TIII
notes: Membrane detergent extract; also called recombinant leukosialin
With B1, the binding result in test [1] and in test [2] was “no binding” in each case.

B2: recombinant CD43 (pFCD43) from COS cells co-transfected with Fuc-TVII (other, UniProt P16150 20-400, looked up)
chain: STTAVQTPTSGEPLVSTSEPLSSKMYTTSITSDPKADSTGDQTSALPPSTSINEGSPLWTSIGASTGSPLPEPTTYQEVSIKMSSVPQETPHATSHPAVPITANSLGSHTVTGGTITTNSPETSSRTSGAPVTTAASSLETSRGTSGPPLTMATVSLETSKGTSGPPVTMATDSLETSTGTTGPPVTMTTGSLEPSSGASGPQVSSVKLSTMMSPTTSTNASTVPFRNPDENSRGMLPVAVLVALLAVIVLVALLLLWRRRQKRRTGALVLSRGGKRNGVVDAWAGPAQVPEEGAVTVTVGGSGGDKGSGFPDGEGSSRRPTLTTFFGRRKSRQGSLAMEELKSGSGPSLKGEEEPLVASEDGAVDAPAPDEPEGGDGAAP
modifications: co-expressed with Fuc-TVII
notes: as for B1
As to B2, the binding result in test [1] and in test [2] was “no binding” in each case.

B3: 148.Fc, P-selectin ligand-IgG chimera with amino acids 42-189 of SEQ ID NO:2 (Fc fusion)
chain: QATEYEYLDYDFLPETEPPEMLRNSTDTTPLTGPGTPESTTVEPAARRSTGLDAGGAVTELTTELANMGNLSTDSAAMEIQTTQPAATEAQTTPLAATEAQTTRLTATEAQTTPLAATEAQTTPPAATEAQTTQPTGLEAQTTAPAAM
modifications: tyrosine residues of the anionic region (46, 48, 51 of SEQ ID NO:2) are the major site of sulfation; glycosylated, co-expressed with 3/4FT
notes: also called pED.148.Fc product; pED.149.Fc; not shown: NotI junction/linker of pED.Fc; Fc region of a human IgG1 from pED.PSL.Fc
Turning to B3, in test [3], the binding result is “binds”.

B4: FFFE.148.Fc (Fc fusion)
chain: QATEFEFLDFEFLPETEPPEMLRNSTDTTPLTGPGTPESTTVEPAARRSTGLDAGGAVTELTTELANMGNLSTDSAAMEIQTTQPAATEAQTTPLAATEAQTTRLTATEAQTTPLAATEAQTTPPAATEAQTTQPTGLEAQTTAPAAM
modifications: glycosylated, co-expressed with 3/4FT
notes: also called pED.FFFE.148.Fc product; not shown: NotI junction/linker of pED.Fc; Fc region of a human IgG1
For the molecule B4, in test [3], the binding result was “binds”.

B5: sPSL.T7 co-expressed with 3/4FT and PACE (PACE-cleaved soluble P-selectin ligand) (ligand, not shown: large carriers)
chain: QATEYEYLDYDFLPETEPPEMLRNSTDTTPLTGPGTPESTTVEPAARRSTGLDAGGAVTELTTELANMGNLSTDSAAMEIQTTQPAATEAQTTPLAATEAQTTRLTATEAQTTPLAATEAQTTPPAATEAQTTQPTGLEAQTTAPAAMEAQTTAPAAMEAQTTPPAAMEAQTTQTTAMEAQTTAPEATEAQTTQPTATEAQTTPLAAMEALSTEPSATEALSMEPTTKRGLFIPFSVSSVTHKGIPMAASNLSV
modifications: glycosylated; co-expressed with 3/4FT
notes: also called PACE-cleaved P-selectin ligand; CP/PSL-T7 (R4.1) product
B5: in test [4], the “fold increase in bound CHO:P-selectin cells against P-selectin ligand not co-expressed with PACE” value is roughly 2 fold.

(Values after patent US7563760 (GENETICS INSTITUTE, dated 2009).)
